The source of these data is US20090170069A1.

The assay addresses amyloid β-peptide Aβ40, aggregating sample (soluble oligomers, early intermediates) (UniProt P05067). In words: cell-based or functional assay.

B1: TJ10 (beta-sheet mini protein) (designed binder)
chain: MAQTFWLSIQGKTLYWQIRIYAIDAAEAEKIFKQYANDNGIDGEWTYDDATKTFTVTE
Molecule B1 registered a ThT fluorescence: share of Aβ40 aggregated after 18 h of 38%.
